How the values were obtained:
[1] = target: LdcI (Escherichia coli) (UniProt P0A9H3); conditions: cited from earlier work
[2] = target: inducible lysine decarboxylase LdcI (Escherichia coli) (UniProt P0A9H3); assay: cryo-EM structure; LdcI-LARA complex, 7.5 Å; 7.3 µM LdcI with 73 µM LARA (1:10), 15 min at room temperature, 50 mM Mes pH 6.5, 100 mM NaCl, 0.2 mM PLP, 1 mM DTT, 0.01% glutaraldehyde; D5 symmetry imposed
Sequence of inducible lysine decarboxylase LdcI (Escherichia coli) (P0A9H3 whole entry): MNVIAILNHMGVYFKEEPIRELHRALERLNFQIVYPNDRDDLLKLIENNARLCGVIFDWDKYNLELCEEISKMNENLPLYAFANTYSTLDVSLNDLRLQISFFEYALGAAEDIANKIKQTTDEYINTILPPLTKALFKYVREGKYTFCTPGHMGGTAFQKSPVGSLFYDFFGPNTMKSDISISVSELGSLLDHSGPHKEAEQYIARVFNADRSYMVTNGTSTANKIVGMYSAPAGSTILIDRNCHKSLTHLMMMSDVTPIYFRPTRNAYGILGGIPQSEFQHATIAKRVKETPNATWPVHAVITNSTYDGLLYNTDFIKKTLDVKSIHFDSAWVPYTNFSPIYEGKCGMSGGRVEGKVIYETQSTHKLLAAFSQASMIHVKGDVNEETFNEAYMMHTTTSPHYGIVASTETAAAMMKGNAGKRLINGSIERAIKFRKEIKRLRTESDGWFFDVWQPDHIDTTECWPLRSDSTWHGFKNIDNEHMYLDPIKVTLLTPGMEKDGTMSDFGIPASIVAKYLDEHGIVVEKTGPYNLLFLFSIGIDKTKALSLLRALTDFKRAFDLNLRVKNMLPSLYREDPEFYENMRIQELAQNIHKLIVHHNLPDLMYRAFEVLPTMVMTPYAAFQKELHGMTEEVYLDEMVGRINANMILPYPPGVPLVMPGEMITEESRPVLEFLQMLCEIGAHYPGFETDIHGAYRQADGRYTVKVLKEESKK

Sequence of RavA (P31473 whole entry): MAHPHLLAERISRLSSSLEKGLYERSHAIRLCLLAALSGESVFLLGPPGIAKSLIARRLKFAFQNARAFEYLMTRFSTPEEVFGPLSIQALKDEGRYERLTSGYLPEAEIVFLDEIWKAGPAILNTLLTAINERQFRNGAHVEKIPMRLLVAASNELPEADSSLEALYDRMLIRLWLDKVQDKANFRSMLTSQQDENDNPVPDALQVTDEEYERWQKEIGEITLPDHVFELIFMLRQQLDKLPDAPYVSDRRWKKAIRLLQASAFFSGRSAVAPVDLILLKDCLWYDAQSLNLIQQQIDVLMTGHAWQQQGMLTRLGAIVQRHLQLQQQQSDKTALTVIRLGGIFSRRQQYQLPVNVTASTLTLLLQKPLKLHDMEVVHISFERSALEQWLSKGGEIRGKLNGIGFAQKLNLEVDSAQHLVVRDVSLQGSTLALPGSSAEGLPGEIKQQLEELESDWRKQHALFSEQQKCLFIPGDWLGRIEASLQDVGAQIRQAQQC
Sequence of LdcI (Escherichia coli) (P0A9H3 whole entry): as the sequence (P0A9H3 whole entry) above

Row | stoichiometry N (LARA domain per LdcI protomer) [2] | Substance | Kd [1] [nM]
1 | – | RavA (from UniProt P31473) | 20
2 | 1 | LARA domain of RavA (LdcI associating domain of RavA) (from UniProt P31473 1-498) (domain or fragment) | –
